{"source": "patent US11370837", "about": "(dated 2022)", "data": [{"biological_target": "T1, human TIGIT-Fc (human, UniProt Q495A1)", "T1 chain": "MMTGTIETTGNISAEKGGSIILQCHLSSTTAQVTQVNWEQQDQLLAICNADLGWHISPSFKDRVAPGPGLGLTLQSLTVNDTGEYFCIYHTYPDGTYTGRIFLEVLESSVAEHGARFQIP", "assay": "BLI", "units": {"Kd": "nM"}, "values": [{"binder": "ADI-30272 Fab (antibody, V domains shown) VH: QVQLVQSGAEVKKPGASVKVSCKASGYTFTEYYMHWVRQAPGQGLEWMGIISPSAGSTSYAQKFQGRVTMTRDTSTSTVYMELSSLRSEDTAVYYCARDHDIAAAGRLADYWGQGTLVTVSS VL: DIQMTQSPSSVSASVGDRVTITCRASQGISSWLAWYQQKPGKAPKLLISAASSLQSGVPSRFSGSGSGTDFTLTISSLQPEDFATYYCQQAVILPITFGGGTKVEIK", "Kd": 1.19}, {"binder": "ADI-30278 Fab (antibody, V domains shown) VH: QVQLVQSGAEVKKPGASVKVSCKASGYTFTEYYMHWVRQAPGQGLEWMGIISPSAGSTKYAQKFQGRVTMTRDTSTSTVYMELSSLRSEDTAVYYCARDHDIRLAGRLADYWGQGTLVTVSS VL: DIQMTQSPSSVSASVGDRVTITCRASQGISSWLAWYQQKPGKAPKLLISAASSLQSGVPSRFSGSGSGTDFTLTISSLQPEDFATYYCQQAVILPITFGGGTKVEIK", "Kd": 0.243}, {"binder": "ADI-27301 Fab (antibody, V domains shown) VH: QLQLQESGPGLVKPSETLSLTCTVSGGSISSSSYYWGWIRQPPGKGLEWIGSIYYSGSTYYNPSLKSRVTISVDTSKNQFSLKLSSVTAADTAVYYCAREAGRGTTGLLFDYWGQGTLVTVSS VL: DIQMTQSPSTLSASVGDRVTITCRASQSISSWLAWYQQKPGKAPKLLIYKASSLESGVPSRFSGSGSGTEFTLTISSLQPDDFATYYCQQYGILPRTFGGGTKVEIK", "Kd": 8.01}, {"binder": "ADI-30293 Fab (antibody, V domains shown) VH: EVQLVESGGGLVQPGGSLRLSCAASGFTFSSYSMNWVRQAPGKGLEWVSYISSSGTINYADSVKGRFTISRDNAKNSLYLQMNSLRAEDTAVYYCARHRIADSPSRAFDIWGQGTMVTVSS VL: not shown", "Kd": 3.49}, {"binder": "ADI-30286 Fab (antibody, V domains shown) VH: EVQLLESGGGLVQPGGSLRLSCAASGFTFGPYGMSWVRQAPGKGLEWVSAISGSGASTWYADSVKGRFTISRDNSKNTLYLQMNSLRAEDTAVYYCAKDPGTHYSGYYYIWRYWGQGTLVTVSS VL: EIVMTQSPATLSVSPGERATLSCRASQSVSSNLAWYQQKPGQAPRLLIYSASTRATGIPARFSGSGSGTEFTLTISSLQSEDFAVYYCQQYVPHPPFTFGGGTKVEIK", "Kd": 0.436}, {"binder": "ADI-27291 Fab (antibody, V domains shown) VH: not shown VL: EIVMTQSPATLSVSPGERATLSCRASQSVSSNLAWYQQKPGQAPRLLIYSASTRATGIPARFSGSGSGTEFTLTISSLQSEDFAVYYCQQYVPHPPFTFGGGTKVEIK", "Kd": 6.48}, {"binder": "ADI-27243 Fab (antibody, V domains shown) VH: QLQLQESGPGLVKPSETLSLTCTVSGGSISSSRYYWGWIRQPPGKGLEWIGSIYYSGSTYYNPSLKSRVTISVDTSKNQFSLKLSSVTAADTAVYYCARDGLYHTPEYFQHWGQGTLVTVSS VL: EIVLTQSPATLSLSPGERATLSCRASQSVSSYLAWYQQKPGQAPRLLIYDASNRATGIPARFSGSGSGTDFTLTISSLEPEDFAVYYCQQRFAFPYTFGGGTKVEIK", "Kd": 9.47}, {"binder": "ADI-30336 Fab (antibody, V domains shown) VH: QLQLQESGPGLVKPSETLSLTCTVSGGSISSSRYYWGWIRQPPGKGLEWIGSIYYSGSTYYNPSLKSRVTISVDTSKNQFSLKLSSVTAADTAVYYCARDGLYHTPEYFQHWGQGTLVTVSS VL: EIVLTQSPATLSLSPGERATLSCRASQSVSSYLAWYQQKPGQAPRLLIYDASNRATGIPARFSGSGSGTDFTLTISSLEPEDFAVYYCQQRFAHPYTFGGGTKVEIK", "Kd": 0.566}, {"binder": "ADI-27278 Fab (antibody, V domains shown) VH: EVQLVESGGGLVQPGGSLRLSCAASGFTFSSYSMNWVRQAPGKGLEWVSYISGSSSTIYYADSVKGRFTISRDNAKNSLYLQMNSLRAEDTAVYYCARHRIADSPSRAFDIWGQGTMVTVSS VL: not shown", "Kd": 10.9}, {"binder": "ADI-30268 Fab (antibody, V domains shown) VH: QVQLVQSGAEVKKPGASVKVSCKASGYTFGSYYMGWVRQAPGQGLEWMGIIDPSGGRTSYARKFQGRVTMTRDTSTSTVYMELSSLRSEDTAVYYCARARTPSSWPYGMDVWGQGTTVTVSS VL: DIQMTQSPSSLSASVGDRVTITCRASQSINSYLNWYQQKPGKAPKLLIYAASSLQSGVPSRFSGSGSGTDFTLTISSLQPEDFATYYCQQSLLTPFTFGGGTKVEIK", "Kd": 0.571}]}]}
